Measured values reported in patent publication US20210181204A1 (SYNGENTA PARTICIPATIONS, published 2021).
Substitutions are numbered along the chain they refer to. In names and notes the source's numbering stands.

Experiments:
[1] = target: T1, Cry1Ab insecticidal protein (Bacillus thuringiensis, UniProt P0A370 1-615); assay: direct ELISA, coated protein, SA-AP, 405 nm
[2] = target: eCry3.1Ab hybrid insecticidal protein; assay: direct ELISA, coated protein, SA-AP, 405 nm
[3] = target: T2, mCry3A insecticidal protein (Bacillus thuringiensis subsp. …, UniProt P0A379 48-644, limits assumed); assay: direct ELISA, coated protein, SA-AP, 405 nm
T2 construct: also called modified Cry3A
T2 sequence: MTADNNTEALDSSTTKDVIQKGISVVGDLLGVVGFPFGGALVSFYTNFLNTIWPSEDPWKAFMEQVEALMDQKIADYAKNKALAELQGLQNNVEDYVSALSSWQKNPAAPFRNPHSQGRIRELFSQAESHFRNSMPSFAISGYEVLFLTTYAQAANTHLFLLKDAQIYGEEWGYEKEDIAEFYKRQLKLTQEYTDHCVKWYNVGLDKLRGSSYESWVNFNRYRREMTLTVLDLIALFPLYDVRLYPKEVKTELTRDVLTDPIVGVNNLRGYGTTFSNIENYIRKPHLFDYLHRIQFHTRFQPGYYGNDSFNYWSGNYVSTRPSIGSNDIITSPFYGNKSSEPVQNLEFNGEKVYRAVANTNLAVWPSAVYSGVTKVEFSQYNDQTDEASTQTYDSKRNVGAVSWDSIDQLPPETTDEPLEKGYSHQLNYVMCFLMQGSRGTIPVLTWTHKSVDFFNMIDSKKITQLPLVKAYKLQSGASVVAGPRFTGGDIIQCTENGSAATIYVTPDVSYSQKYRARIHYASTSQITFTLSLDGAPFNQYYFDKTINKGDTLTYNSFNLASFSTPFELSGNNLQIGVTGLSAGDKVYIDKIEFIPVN

[4] = target: Cry1Aa insecticidal protein (Bacillus thuringiensis subsp. aizawai, UniProt P0A367 12-1176); assay: direct ELISA, coated protein, SA-AP, 405 nm
[5] = target: Cry1Ai insecticidal protein; assay: direct ELISA, coated protein, SA-AP, 405 nm
[6] = target: Cry1Ab.1Ca insecticidal protein; assay: direct ELISA, coated protein, SA-AP, 405 nm
[7] = target: eCry3.1Ab hybrid insecticidal protein; assay: direct ELISA: eCry3.1Ab coated at 1 ug/ml, RGS-His HRP detection
[8] = target: T1, Cry1Ab insecticidal protein; assay: direct ELISA: Cry1Ab coated at 1 ug/ml, RGS-His HRP detection
[9] = target: T2, mCry3A insecticidal protein; assay: direct ELISA: mCry3A coated at 1 ug/ml, RGS-His HRP detection
[10] = target: T2, mCry3A insecticidal protein; assay: direct ELISA: protein coated at 500 ng/ml, 10 nM tagged synNAPS with SA-AP

B1: synNAPS-10tag ligand (designed binder)
chain: MRGSHHHHHHGSVKVKFLMKGEEKEVDTSKIKWVNRHGKYVAFYYDDNGKTGGGEVREKDAPKELLDMLARAEREKKLGSGLNDIFEAQKIEWH
modifications: in vivo biotinylation (E. coli BirA strain) on the C-terminal avidin-tag
notes: also called tagged synNAPS 10
binding result [1]: no binding (tested: 10 nM)
binding result [2]: no binding (tested: 10 nM)
binding result [3]: no binding (tested: 10 nM)
binding result [4]: no binding (tested: 10 nM)
binding result [5]: no binding (tested: 10 nM)
binding result [6]: no binding (tested: 10 nM)

B2: synNAPS13 variant K7A (designed binder)
chain: RGSHHHHHHGSMVKVKFARWGEEKEVDTSKILHVLRVGKYVRFSYDDNGKLGAGYVTEKDAPKELLDMLARAEREKK
Binding (OD 450 nm) [7]: 3 OD 450 nm

B3: synNAPS13 variant W9A (designed binder)
chain: B2 chain with A18K, W20A
Binding (OD 450 nm) [7]: 1 OD 450 nm

B4: synNAPS13 variant L24A (designed binder)
chain: B2 chain with A18K, L35A
Binding (OD 450 nm) [7]: 1.1 OD 450 nm

B5: synNAPS13 variant R8A (designed binder)
chain: B2 chain with A18K, R19A
Binding (OD 450 nm) [7]: 2.4 OD 450 nm

B6: synNAPS13 variant L21A (designed binder)
chain: B2 chain with A18K, L32A
Binding (OD 450 nm) [7]: 1.8 OD 450 nm

B7: synNAPS13 variant L40A (designed binder)
chain: B2 chain with A18K, L51A
Binding (OD 450 nm) [7]: 0.5 OD 450 nm

B8: synNAPS13 variant T46A (designed binder)
chain: B2 chain with A18K, T57A
Binding (OD 450 nm) [7]: 4.1 OD 450 nm

B9: synNAPS13 variant Y29A (designed binder)
chain: B2 chain with A18K, Y40A
Binding (OD 450 nm) [7]: 2.6 OD 450 nm

B10: synNAPS13 variant V26A (designed binder)
chain: B2 chain with A18K, V37A
Binding (OD 450 nm) [7]: 1.8 OD 450 nm

B11: synNAPS13 variant S33A (designed binder)
chain: B2 chain with A18K, S44A
Binding (OD 450 nm) [7]: 4.1 OD 450 nm

B12: synNAPS2 variant K7A (designed binder)
chain: RGSHHHHHHGSMVKVKFAYKGEEKEVDTSKIVWIGRFGKSVYFRYDDNGKTGAGRVYEKDAPKELLDMLARAEREKK
Binding (OD 450 nm) [8]: 4 OD 450 nm

B13: synNAPS2 variant T40A (designed binder)
chain: B12 chain with A18K, T51A
Binding (OD 450 nm) [8]: 4 OD 450 nm

B14: synNAPS2 variant V21A (designed binder)
chain: B12 chain with A18K, V32A
Binding (OD 450 nm) [8]: 3.8 OD 450 nm

B15: synNAPS2 variant G24A (designed binder)
chain: B12 chain with A18K, G35A
Binding (OD 450 nm) [8]: 4 OD 450 nm

B16: synNAPS2 variant I23A (designed binder)
chain: B12 chain with A18K, I34A
Binding (OD 450 nm) [8]: 3.2 OD 450 nm

B17: synNAPS2 variant Y46A (designed binder)
chain: B12 chain with A18K, Y57A
Binding (OD 450 nm) [8]: 3.5 OD 450 nm

B18: synNAPS2 variant Y8A (designed binder)
chain: B12 chain with A18K, Y19A
Binding (OD 450 nm) [8]: 2.4 OD 450 nm

B19: synNAPS2 variant R33A (designed binder)
chain: B12 chain with A18K, R44A
Binding (OD 450 nm) [8]: 2.2 OD 450 nm

B20: synNAPS2 variant K9A (designed binder)
chain: B12 chain with A18K, K20A
Binding (OD 450 nm) [8]: 4 OD 450 nm

B21: synNAPS2 variant F26A (designed binder)
chain: B12 chain with A18K, F37A
Binding (OD 450 nm) [8]: 3.7 OD 450 nm

B22: synNAPS9 variant F31A (designed binder)
chain: RGSHHHHHHGSMVKVKFAQGGEEKEVDTSKIYRVPRHGKIVAFMYDDNGKGGFGHVTEKDAPKELLDMLARAEREKK
Binding (OD 450 nm) [9]: 1.4 OD 450 nm

B23: synNAPS9 variant F42A (designed binder)
chain: B22 chain with A42F, F53A
Binding (OD 450 nm) [9]: 0.2 OD 450 nm

B24: synNAPS9 variant H26A (designed binder)
chain: B22 chain with H37A, A42F
Binding (OD 450 nm) [9]: 1.8 OD 450 nm

B25: synNAPS9 variant Y21A (designed binder)
chain: B22 chain with Y32A, A42F
Binding (OD 450 nm) [9]: 1.8 OD 450 nm

B26: synNAPS9 variant R22A (designed binder)
chain: B22 chain with R33A, A42F
Binding (OD 450 nm) [9]: 1 OD 450 nm

B27: synNAPS9 variant G40A (designed binder)
chain: B22 chain with A42F, G51A
Binding (OD 450 nm) [9]: 1.7 OD 450 nm

B28: synNAPS9 variant P24A (designed binder)
chain: B22 chain with P35A, A42F
Binding (OD 450 nm) [9]: 0.5 OD 450 nm

B29: synNAPS9 variant G9A (designed binder)
chain: B22 chain with G20A, A42F
Binding (OD 450 nm) [9]: 1.5 OD 450 nm

B30: synNAPS-12tag ligand (designed binder)
chain: MRGSHHHHHHGSVKVKFKLTGEEKEVDTSKIQWVARFGKFVDFLYDDNGKTGWGWVYEKDAPKELLDMLARAEREKKLGSGLNDIFEAQKIEWH
modifications: in vivo biotinylation (E. coli BirA strain) on the C-terminal avidin-tag
notes: also called tagged synNAPS 12
binding result [1]: no binding (tested: 10 nM)
binding result [2]: no binding (tested: 10 nM)
binding result [3]: no binding (tested: 10 nM)
binding result [4]: no binding (tested: 10 nM)
binding result [5]: no binding (tested: 10 nM)
binding result [6]: no binding (tested: 10 nM)

B31: synNAPS-14tag ligand (designed binder)
chain: B30 chain with L19Y, T20K, Q32I, W33F, A35Y, D42M, L44I, W53H, W55D, Y57R
modifications: in vivo biotinylation (E. coli BirA strain) on the C-terminal avidin-tag
notes: also called tagged synNAPS 14
binding result [1]: no binding (tested: 10 nM)
binding result [2]: no binding (tested: 10 nM)
binding result [3]: no binding (tested: 10 nM)
binding result [4]: no binding (tested: 10 nM)
binding result [5]: no binding (tested: 10 nM)
binding result [6]: no binding (tested: 10 nM)

B32: synNAPS-9 ligand (designed binder)
chain: MVKVKFAQGGEEKEVDTSKIYRVPRHGKIVFFMYDDNGKGGFGHVTEKDAPKELLDMLARAEREKK
Binding (OD 450 nm) [9]: 2.5 OD 450 nm

B33: synNAPS-2 ligand (designed binder)
chain: MVKVKFKYKGEEKEVDTSKIVWIGRFGKSVYFRYDDNGKTGAGRVYEKDAPKELLDMLARAEREKK
Binding (OD 450 nm) [8]: 4 OD 450 nm

B34: synNAPS-1tag ligand (designed binder)
chain: MRGSHHHHHHGSVKVKFGPWGEEKEVDTSKIVDVWRWGKYVDFFYDDNGKVGIGSVTEKDAPKELLDMLARAEREKKLGSGLNDIFEAQKIEWH
modifications: in vivo biotinylation (E. coli BirA strain) on the C-terminal avidin-tag
notes: also called tagged synNAPS 1
binding result [1]: no binding (tested: 10 nM)
binding result [2]: no binding (tested: 10 nM)
binding result [3]: no binding (tested: 10 nM)
binding result [4]: no binding (tested: 10 nM)
binding result [5]: no binding (tested: 10 nM)
binding result [6]: no binding (tested: 10 nM)

B35: synNAPS-6tag ligand (designed binder)
chain: MRGSHHHHHHGSVKVKFMRWGEEKEVDTSKITYVTRWGKTVIFYYDDNGKKGHGSVLEKDAPKELLDMLARAEREKKLGSGLNDIFEAQKIEWH
modifications: in vivo biotinylation (E. coli BirA strain) on the C-terminal avidin-tag
notes: also called tagged synNAPS 6
binding result [1]: no binding (tested: 10 nM)
binding result [2]: no binding (tested: 10 nM)
binding result [4]: no binding (tested: 10 nM)
binding result [5]: no binding (tested: 10 nM)
binding result [6]: no binding (tested: 10 nM)
Binding to Insecticidal Protein (read at 405 nm) [10]: 1.1 absorbance 405 nm
